Patent publication US20230391828A1, “REGULATORS OF CELL DIVISION” (TECHNISCHE UNIVERSITÄT DRESDEN, priority 2020, published 2023)
Entries after “also recorded” stand apart in the source; their conditions may differ. Bridge positions count the residues as written; N and C are the ends. Square brackets hold non-standard residues; d marks the D form. 2Nal = N[C@@H](Cc1ccc2ccccc2c1)C(=O)O; R8 = C=CCCCCCC[C@@](C)(N)C(=O)O; S5 = C=CCCC[C@](C)(N)C(=O)O

system: APC/C; test: Ubiquitinated securin (Mean ± SD); settings: 100 µM
Source text: Table printed on a drawing sheet, Figure 6
Head of the field: Ubiquitinated securin (Mean ± SD)

Substance	Ubiquitinated securin (Mean ± SD)
Ac-cyclo(5,9)-RWPQXIKDXQVRWW-NH2 (Ac-RWPQ[S5]IKD[S5]QVRWW-NH2; staple 5-9; SMILES CC[C@H](C)[C@@H]1NC(=O)[C@@](C)(NC(=O)[C@H](CCC(N)=O)NC(=O)[C@@H]2CCCN2C(=O)[C@H](Cc2c[nH]c3ccccc23)NC(=O)[C@H](CCCNC(=N)N)NC(C)=O)CCCC=CCCC[C@@](C)(C(=O)N[C@@H](CCC(N)=O)C(=O)N[C@H](C(=O)N[C@@H](CCCNC(=N)N)C(=O)N[C@@H](Cc2c[nH]c3ccccc23)C(=O)N[C@@H](Cc2c[nH]c3ccccc23)C(N)=O)C(C)C)NC(=O)[C@H](CC(=O)O)NC(=O)[C@H](CCCCN)NC1=O) [G3-3] [listing 1 of 2 here]	5.1 ± 6%
Ac-cyclo(4,11)-EWWZKLEIQRXRRA-NH2 (Ac-EWW[R8]KLEIQR[S5]RRA-NH2; staple 4-11; SMILES CC[C@H](C)[C@@H]1NC(=O)[C@H](CCC(=O)O)NC(=O)[C@H](CC(C)C)NC(=O)[C@H](CCCCN)NC(=O)[C@](C)(NC(=O)[C@H](Cc2c[nH]c3ccccc23)NC(=O)[C@H](Cc2c[nH]c3ccccc23)NC(=O)[C@H](CCC(=O)O)NC(C)=O)CCCCCCC=CCCC[C@@](C)(C(=O)N[C@@H](CCCNC(=N)N)C(=O)N[C@@H](CCCNC(=N)N)C(=O)N[C@@H](C)C(N)=O)NC(=O)[C@H](CCCNC(=N)N)NC(=O)[C@H](CCC(N)=O)NC1=O) [G3-4] [listing 1 of 2 here]	4.5 ± 7%
Ac-cyclo(4,11)-EWWZKLELQRXRRA-NH2 (Ac-EWW[R8]KLELQR[S5]RRA-NH2; staple 4-11; SMILES CC(=O)N[C@@H](CCC(=O)O)C(=O)N[C@@H](Cc1c[nH]c2ccccc12)C(=O)N[C@@H](Cc1c[nH]c2ccccc12)C(=O)N[C@]1(C)CCCCCCC=CCCC[C@@](C)(C(=O)N[C@@H](CCCNC(=N)N)C(=O)N[C@@H](CCCNC(=N)N)C(=O)N[C@@H](C)C(N)=O)NC(=O)[C@H](CCCNC(=N)N)NC(=O)[C@H](CCC(N)=O)NC(=O)[C@H](CC(C)C)NC(=O)[C@H](CCC(=O)O)NC(=O)[C@H](CC(C)C)NC(=O)[C@H](CCCCN)NC1=O) [G3-5]	6.1 ± 7%
Ac-cyclo(5,9)-RWPQXKWDXQVRRW-NH2 (Ac-RWPQ[S5]KWD[S5]QVRRW-NH2; staple 5-9; SMILES CC(=O)N[C@@H](CCCNC(=N)N)C(=O)N[C@@H](Cc1c[nH]c2ccccc12)C(=O)N1CCC[C@H]1C(=O)N[C@@H](CCC(N)=O)C(=O)N[C@@]1(C)CCCC=CCCC[C@@](C)(C(=O)N[C@@H](CCC(N)=O)C(=O)N[C@H](C(=O)N[C@@H](CCCNC(=N)N)C(=O)N[C@@H](CCCNC(=N)N)C(=O)N[C@@H](Cc2c[nH]c3ccccc23)C(N)=O)C(C)C)NC(=O)[C@H](CC(=O)O)NC(=O)[C@H](Cc2c[nH]c3ccccc23)NC(=O)[C@H](CCCCN)NC1=O) [G3-1]	15.7 ± 8%

molecular target: T1, APC/C (Homo sapiens, UniProt Q9NYG5); test: In vitro APC/C ubiquitination assay driven by the E2 enzyme UBE2C, fluorophore-labelled securin substrate; type: biochemical; settings: 100 μM, UBE2C, reaction time 45 min
T1 construct: made in house; host or cells: SF9 insect cells (baculovirus)
Description: Proteins were separated by SDS-PAGE electrophoresis using precast Bolt 4-12% Bis-Tris Plus protein gels (Thermo Fisher Scientific) and Criterion XT Bis-Tris Midi Protein Gels (Bio-Rad). In different experiments, various conditions were used: in vitro APC/C ubiquitination assays—165 V, 40 min, SDS-MES running buffer (50 mM MES, 50 mM Tris base, 0.1% SDS, 1 mM EDTA, pH 7.3; Thermo Fisher Scientific); in vitro APC/C ubiquitination assays determining KM—165V, 1 h, SDS-MOPS running buffer (50 mM MOPS, 50 mM Tris base, 0.1% SDS, 1 mM EDTA, pH 7.7; Thermo Fisher Scientific); pull-down binding assay—165 V, 35 min, SDS-MES running buffer.
APC/C-dependent ubiquitination reactions were performed at 30° C. in 30 mM HEPES pH 7.4, 175 mM NaCl, 8 mM MgCl2, 0.05% Tween-20, 1 mM DTT and 5% glycerol and contained 20 nM recombinant APC/C (note, for testing the first generation of inhibitors, APC/C and Cdc20 immunoprecipitated from mitotic HeLa K cells was used), 340 nM Cdc20, 46 nM GST-UBA1, 340 nM UBE2C (alternatively 400 nM UBE2D1, 280 nM UBE2S), 21 μM His6-ubiquitin or if it is indicated 21 μM methylated-ubiquitin (BostonBiochem), 2.6 mM ATP, 10 mM phosphocreatine and 11 μM creatine kinase. As substrates, 35 nM fluorophore-labeled ubiquitin-cyclin B and 50 nM fluorophore-labeled securin were standardly used (fluorophore IRDye 800CW (LI-COR) was used for labelling). In case of KM and kcat determination, 50, 100, 250, 500, 750, 1000, 1250, 2500 and 5000 nM fluorophore-labelled securin was used. The reaction was done in the volume of 15 μl, it was quenched after the indicated time with LDS sample buffer (Thermo Fisher Scientific) supplemented with 100 mM DTT and subjected to SDS-PAGE. Detection of fluorescently labelled substrates was done by quantitative near-infrared scanning system Odyssey.

Substance	inhibition of APC/C activity in vitro (ubiquitinated securin)
Ac-cyclo(3,13)-THCDDPETWRWNCQRV-NH2 (Ac-THCDDPETWRWNCQRV-NH2; disulfide 3-13; SMILES CC(=O)N[C@H](C(=O)N[C@@H](Cc1c[nH]cn1)C(=O)N[C@H]1CSSC[C@@H](C(=O)N[C@@H](CCC(N)=O)C(=O)N[C@@H](CCCNC(=N)N)C(=O)N[C@H](C(N)=O)C(C)C)NC(=O)[C@H](CC(N)=O)NC(=O)[C@H](Cc2c[nH]c3ccccc23)NC(=O)[C@H](CCCNC(=N)N)NC(=O)[C@H](Cc2c[nH]c3ccccc23)NC(=O)[C@H]([C@@H](C)O)NC(=O)[C@H](CCC(=O)O)NC(=O)[C@@H]2CCCN2C(=O)[C@H](CC(=O)O)NC(=O)[C@H](CC(=O)O)NC1=O)[C@@H](C)O) [G1-7]	the most potent
Ac-cyclo(2,11)-RCHWGPRTFWCR—NH2 (Ac-RCHWGPRTFWCR-NH2; disulfide 2-11; SMILES CC(=O)N[C@@H](CCCNC(=N)N)C(=O)N[C@H]1CSSC[C@@H](C(=O)N[C@@H](CCCNC(=N)N)C(N)=O)NC(=O)[C@H](Cc2c[nH]c3ccccc23)NC(=O)[C@H](Cc2ccccc2)NC(=O)[C@H]([C@@H](C)O)NC(=O)[C@H](CCCNC(=N)N)NC(=O)[C@@H]2CCCN2C(=O)CNC(=O)[C@H](Cc2c[nH]c3ccccc23)NC(=O)[C@H](Cc2c[nH]cn2)NC1=O) [G1-3]	the most potent molecule from items (b)-(e); also recorded: the most potent molecule from item (b)
cyclo(1,14)-[L 2-NaI L W K l E W E K R K p P] (cyclo(L[2Nal]LWK[dL]EWEKRK[dP]P); SMILES CC(C)C[C@@H]1NC(=O)[C@H](Cc2ccc3ccccc3c2)NC(=O)[C@H](CC(C)C)NC(=O)[C@@H]2CCCN2C(=O)[C@H]2CCCN2C(=O)[C@H](CCCCN)NC(=O)[C@H](CCCNC(=N)N)NC(=O)[C@H](CCCCN)NC(=O)[C@H](CCC(=O)O)NC(=O)[C@H](Cc2c[nH]c3ccccc23)NC(=O)[C@H](CCC(=O)O)NC(=O)[C@@H](CC(C)C)NC(=O)[C@H](CCCCN)NC(=O)[C@H](Cc2c[nH]c3ccccc23)NC1=O) [G2-4]	the most potent
cyclo(1,14)-[T F L W K W E W T K R K p P] (cyclo(TFLWKWEWTKRK[dP]P); SMILES CC(C)C[C@@H]1NC(=O)[C@H](Cc2ccccc2)NC(=O)[C@H]([C@@H](C)O)NC(=O)[C@@H]2CCCN2C(=O)[C@H]2CCCN2C(=O)[C@H](CCCCN)NC(=O)[C@H](CCCNC(=N)N)NC(=O)[C@H](CCCCN)NC(=O)[C@H]([C@@H](C)O)NC(=O)[C@H](Cc2c[nH]c3ccccc23)NC(=O)[C@H](CCC(=O)O)NC(=O)[C@H](Cc2c[nH]c3ccccc23)NC(=O)[C@H](CCCCN)NC(=O)[C@H](Cc2c[nH]c3ccccc23)NC1=O) [G2-8]	inhibit APC/C in vitro the most effectively compared to other molecules of item (f)

same assay, conditions: 100 μM, UBE2C, reaction time 45 min, 3 independent assays

Substance	inhibition of APC/C activity in vitro compared with TAME
Ac-cyclo(4,11)-EWWZKLEIQRXRRA-NH2 (Ac-EWW[R8]KLEIQR[S5]RRA-NH2; staple 4-11; SMILES CC[C@H](C)[C@@H]1NC(=O)[C@H](CCC(=O)O)NC(=O)[C@H](CC(C)C)NC(=O)[C@H](CCCCN)NC(=O)[C@](C)(NC(=O)[C@H](Cc2c[nH]c3ccccc23)NC(=O)[C@H](Cc2c[nH]c3ccccc23)NC(=O)[C@H](CCC(=O)O)NC(C)=O)CCCCCCC=CCCC[C@@](C)(C(=O)N[C@@H](CCCNC(=N)N)C(=O)N[C@@H](CCCNC(=N)N)C(=O)N[C@@H](C)C(N)=O)NC(=O)[C@H](CCCNC(=N)N)NC(=O)[C@H](CCC(N)=O)NC1=O) [G3-4] [listing 2 of 2 here]	inhibit APC/C in vitro more efficiently than TAME
Ac-cyclo(5,9)-RWPQXIKDXQVRWW-NH2 (Ac-RWPQ[S5]IKD[S5]QVRWW-NH2; staple 5-9; SMILES CC[C@H](C)[C@@H]1NC(=O)[C@@](C)(NC(=O)[C@H](CCC(N)=O)NC(=O)[C@@H]2CCCN2C(=O)[C@H](Cc2c[nH]c3ccccc23)NC(=O)[C@H](CCCNC(=N)N)NC(C)=O)CCCC=CCCC[C@@](C)(C(=O)N[C@@H](CCC(N)=O)C(=O)N[C@H](C(=O)N[C@@H](CCCNC(=N)N)C(=O)N[C@@H](Cc2c[nH]c3ccccc23)C(=O)N[C@@H](Cc2c[nH]c3ccccc23)C(N)=O)C(C)C)NC(=O)[C@H](CC(=O)O)NC(=O)[C@H](CCCCN)NC1=O) [G3-3] [listing 2 of 2 here]	inhibit APC/C in vitro more efficiently than TAME
